Test results as given in the supplement of paper PMC5998384.

Experiments:
HeLa Kyoto [1] = experiment: thermal stability score vs G1/S (z-score of summed log2 fold changes over temperatures); higher = more thermally stable than in G1/S
HeLa Kyoto [2] = experiment: melting temperature (median over replicates), in situ; higher = more thermally stable
HeLa Kyoto [3] = experiment: solubility change mitosis vs G1/S (difference of NP-40 vs SDS log2 ratios) (log2 ratio difference); higher = more soluble in mitosis
HeLa Kyoto [4] = experiment: solubility in G1/S (NP-40 vs SDS abundance) (log2 ratio); higher = more soluble; conditions: cell cycle stage: G1/S
[5] = cell cycle stage: early G1 (4.5 h after nocodazole release)
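Wherever melting temperature (median over replicates), in situ is given: HeLa Kyoto cells synchronized by double thymidine or nocodazole block, proteins quantified by TMT10plex mass spectrometry, three independent biological replicates.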
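Wherever solubility change mitosis vs G1/S (difference of NP-40 vs SDS log2 ratios) is given: synchronized HeLa Kyoto cells (double thymidine block for G1/S, nocodazole release for mitosis), protein amounts in NP-40 versus SDS lysates quantified by mass spectrometry, three biological replicates.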
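Wherever solubility in G1/S (NP-40 vs SDS abundance) is given: HeLa Kyoto cells arrested at G1/S by double thymidine block, proteins quantified by TMT10plex mass spectrometry in mild NP-40 versus SDS extracts, three biological replicates.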
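Wherever thermal stability score vs G1/S (z-score of summed log2 fold changes over temperatures) is given: synchronized HeLa Kyoto cells, proteins quantified by TMT10plex mass spectrometry, three biological replicates, mitosis taken 0.5 h after nocodazole release, G1/S directly after double thymidine block.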

Sequence of MARK2 (chain, as listed by the source): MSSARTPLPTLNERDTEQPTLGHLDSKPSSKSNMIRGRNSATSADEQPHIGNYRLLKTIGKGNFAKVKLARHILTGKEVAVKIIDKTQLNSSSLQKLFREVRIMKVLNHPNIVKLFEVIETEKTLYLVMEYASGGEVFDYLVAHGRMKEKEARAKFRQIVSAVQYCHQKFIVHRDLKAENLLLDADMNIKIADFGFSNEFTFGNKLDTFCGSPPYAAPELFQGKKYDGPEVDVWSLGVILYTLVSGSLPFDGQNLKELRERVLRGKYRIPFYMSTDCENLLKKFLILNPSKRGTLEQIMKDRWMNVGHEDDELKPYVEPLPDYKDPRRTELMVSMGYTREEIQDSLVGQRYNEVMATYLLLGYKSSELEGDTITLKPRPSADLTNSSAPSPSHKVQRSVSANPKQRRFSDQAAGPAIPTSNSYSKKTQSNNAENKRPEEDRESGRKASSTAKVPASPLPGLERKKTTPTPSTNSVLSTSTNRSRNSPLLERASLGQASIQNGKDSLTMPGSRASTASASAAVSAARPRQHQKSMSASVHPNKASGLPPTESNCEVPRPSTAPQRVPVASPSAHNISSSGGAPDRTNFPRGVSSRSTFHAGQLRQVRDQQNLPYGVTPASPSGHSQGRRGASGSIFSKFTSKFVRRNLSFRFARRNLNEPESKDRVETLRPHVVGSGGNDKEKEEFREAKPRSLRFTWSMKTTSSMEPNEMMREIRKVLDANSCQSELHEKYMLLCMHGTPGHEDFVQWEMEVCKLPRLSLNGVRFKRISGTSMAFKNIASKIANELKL

Substance | thermal stability score (HeLa Kyoto [1]; [5]) | thermal stability score (HeLa Kyoto [1]; cell cycle stage: mitosis) | melting temperature (HeLa Kyoto [2]; cell cycle stage: G1/S) | melting temperature (HeLa Kyoto [2]; cell cycle stage: mitosis) | solubility change mitosis (log2) (HeLa Kyoto [3]) | solubility in G1/S (log2) (HeLa Kyoto [4])
MAREMTILGSAVLTLLLAGYLAQQYLPLPTPKVIGIDLGTTYCSVGVFFPGTGKVKVIPDENGHISIPSMVSFTDNDVYVGYESVELADSNPQNTIYDAKRFIGKIFTAEELEAEIGRYPFKVLNKNGMVEFSVTSNETITVSPEYVGSRLLLKLKEMAEAYLGMPVANAVISVPAEFDLKQRNSTIEAANLAGLKILRVINEPTAAAMAYGLHKADVFHVLVIDLGGGTLDVSLLNKQGGMFLTRAMSGNNKLGGQDFNQRLLQYLYKQIYQTYGFVPSRKEEIHRLRQAVEMVKLNLTLHQSAQLSVLLTVEEQDRKEPHSSDTELPKDKLSSADDHRVNSGFGRGLSDKKSGESQVLFETEISRKLFDTLNEDLFQKILVPIQQVLKEGHLEKTEIDEVVLVGGSTRIPRIRQVIQEFFGKDPNTSVDPDLAVVTGVAIQAGIDGGSWPLQVSALEIPNKHLQKTNFN [HSPA13] | 4.12 | 4.92 | 54.6 °C | 53.3 °C | 0.00641 | 0.088
MARGLGAPHWVAVGLLTWATLGLLVAGLGGHDDLHDDLQEDFHGHSHRHSHEDFHHGHSHAHGHGHTHESIWHGHTHDHDHGHSHEDLHHGHSHGYSHESLYHRGHGHDHEHSHGGYGESGAPGIKQDLDAVTLWAYALGATVLISAAPFFVLFLIPVESNSPRHRSLLQILLSFASGGLLGDAFLHLIPHALEPHSHHTLEQPGHGHSHSGQGPILSVGLWVLSGIVAFLVVEKFVRHVKGGHGHSHGHGHAHSHTRGSHGHGRQERSTKEKQSSEEEEKETRGVQKRRGGSTVPKDGPVRPQNAEEEKRGLDLRVSGYLNLAADLAHNFTDGLAIGASFRGGRGLGILTTMTVLLHEVPHEVGDFAILVQSGCSKKQAMRLQLLTAVGALAGTACALLTEGGAVGSEIAGGAGPGWVLPFTAGGFIYVATVSVLPELLREASPLQSLLEVLGLLGGVIMMVLIAHLE [SLC39A7] | -0.93 | -2.25 | 59.2 °C | 57.1 °C | -0.00492 | -0.392
MARK2 | 0.513 | 0.569 | 49.6 °C | 48.7 °C | 0.0431 | -0.0826
MARKRAAGGEPRGRELRSQKSKAKSKARREEEEEDAFEDEKPPKKSLLSKVSQGKRKRGCSHPGGSADGPAKKKVAKVTVKSENLKVIKDEALSDGDDLRDFPSDLKKAHHLKRGATMNEDSNEEEEESENDWEEVEELSEPVLGDVRESTAFSRSLLPVKPVEIEIETPEQAKTRERSEKIKLEFETYLRRAMKRFNKGVHEDTHKVHLLCLLANGFYRNNICSQPDLHAIGLSIIPARFTRVLPRDVDTYYLSNLVKWFIGTFTVNAELSASEQDNLQTTLERRFAIYSARDDEELVHIFLLILRALQLLTRLVLSLQPIPLKSATAKGKKPSKERLTADPGGSSETSSQVLENHTKPKTSKGTKQEETFAKGTCRPSAKGKRNKGGRKKRSKPSSSEEDEGPGDKQEKATQRRPHGRERRVASRVSYKEESGSDEAGSGSDFELSSGEASDPSDEDSEPGPPKQRKAPAPQRTKAGSKSASRTHRGSHRKDPSLPAASSSSSSSKRGKKMCSDGEKAEKRSIAGIDQWLEVFCEQEEKWVCVDCVHGVVGQPLTCYKYATKPMTYVVGIDSDGWVRDVTQRYDPVWMTVTRKCRVDAEWWAETLRPYQSPFMDREKKEDLEFQAKHMDQPLPTAIGLYKNHPLYALKRHLLKYEAIYPETAAILGYCRGEAVYSRDCVHTLHSRDTWLKKARVVRLGEVPYKMVKGFSNRARKARLAEPQLREENDLGLFGYWQTEEYQPPVAVDGKVPRNEFGNVYLFLPSMMPIGCVQLNLPNLHRVARKLDIDCVQAITGFDFHGGYSHPVTDGYIVCEEFKDVLLTAWENEQAVIERKEKEKKEKRALGNWKLLAKGLLIRERLKRRYGPKSEAAAPHTDAGGGLSSDEEEGTSSQAEAARILAASWPQNREDEEKQKLKGGPKKTKREKKAAASHLFPFEQL [XPC] | 0.959 | 2.74 | 47.7 °C | 48.4 °C | 0.43 | -0.919
MARPLVPSSQKALLLELKGLQEEPVEGFRVTLVDEGDLYNWEVAIFGPPNTYYEGGYFKARLKFPIDYPYSPPAFRFLTKMWHPNIYETGDVCISILHPPVDDPQSGELPSERWNPTQNVRTILLSVISLLNEPNTFSPANVDASVMYRKWKESKGKDREYTDIIRKQVLGTKVDAERDGVKVPTTLAEYCVKTKAPAPDEGSDLFYDDYYEDGEVEEEADSCFGDDEDDSGTEES [CDC34] | 0.555 | 2.54 | 48.8 °C | 49.1 °C | -0.0905 | 0.3
MARVLKAAAANAVGLFSRLQAPIPTVRASSTSQPLDQVTGSVWNLGRLNHVAIAVPDLEKAAAFYKNILGAQVSEAVPLPEHGVSVVFVNLGNTKMELLHPLGRDSPIAGFLQKNKAGGMHHICIEVDNINAAVMDLKKKKIRSLSEEVKIGAHGKPVIFLHPKDCGGVLVELEQA [MCEE] | -0.379 | -2.18 | 57.8 °C | 56.1 °C | 0.128 | 0.471
MASAGDTQAGPRDAADQNFDYMFKLLLIGNSSVGKTSFLFRYADDSFTPAFVSTVGIDFKVKTVYRHDKRIKLQIWDTAGQERYRTITTAYYRGAMGFLLMYDIANQESFAAVQDWATQIKTYSWDNAQVILVGNKCDLEDERVVPAEDGRRLADDLGFEFFEASAKENINVKQVFERLVDVICEKMNESLEPSSSSGSNGKGPAVGDAPAPQPSSCSC [RAB3D] | -1.66 | -1.58 | 57.2 °C | 57.6 °C | -0.109 | 0.0512
MASASGAMAKHEQILVLDPPTDLKFKGPFTDVVTTNLKLRNPSDRKVCFKVKTTAPRRYCVRPNSGIIDPGSTVTVSVMLQPFDYDPNEKSKHKFMVQTIFAPPNTSDMEAVWKEAKPDELMDSKLRCVFEMPNENDKLNDMEPSKAVPLNASKQDGPMPKPHSVSLNDTETRKLMEECKRLQGEMMKLSEENRHLRDEGLRLRKVAHSDKPGSTSTASFRDNVTSPLPSLLVVIAAIFIGFFLGKFIL [VAPA] | -1.27 | -1.24 | 54.1 °C | 54.5 °C | 0.0815 | 0.735
MASASTSKYNSHSLENESIKRTSRDGVNRDLTEAVPRLPGETLITDKEVIYICPFNGPIKGRVYITNYRLYLRSLETDSSLILDVPLGVISRIEKMGGATSRGENSYGLDITCKDMRNLRFALKQEGHSRRDMFEILTRYAFPLAHSLPLFAFLNEEKFNVDGWTVYNPVEEYRRQGLPNHHWRITFINKCYELCDTYPALLVVPYRASDDDLRRVATFRSRNRIPVLSWIHPENKTVIVRCSQPLVGMSGKRNKDDEKYLDVIRETNKQISKLTIYDARPSVNAVANKATGGGYESDDAYHNAELFFLDIHNIHVMRESLKKVKDIVYPNVEESHWLSSLESTHWLEHIKLVLTGAIQVADKVSSGKSSVLVHCSDGWDRTAQLTSLAMLMLDSFYRSIEGFEILVQKEWISFGHKFASRIGHGDKNHTDADRSPIFLQFIDCVWQMSKQFPTAFEFNEQFLIIILDHLYSCRFGTFLFNCESARERQKVTERTVSLWSLINSNKEKFKNPFYTKEINRVLYPVASMRHLELWVNYYIRWNPRIKQQQPNPVEQRYMELLALRDEYIKRLEELQLANSAKLSDPPTSPSSPSQMMPHVQTHF [MTM1] | -1.72 | -2.37 | 55.2 °C | 54 °C | 0.0496 | -0.0766
MASASYHISNLLEKMTSSDKDFRFMATNDLMTELQKDSIKLDDDSERKVVKMILKLLEDKNGEVQNLAVKCLGPLVSKVKEYQVETIVDTLCTNMLSDKEQLRDISSIGLKTVIGELPPASSGSALAANVCKKITGRLTSAIAKQEDVSVQLEALDIMADMLSRQGGLLVNFHPSILTCLLPQLTSPRLAVRKRTIIALGHLVMSCGNIVFVDLIEHLLSELSKNDSMSTTRTYIQCIAAISRQAGHRIGEYLEKIIPLVVKFCNVDDDELREYCIQAFESFVRRCPKEVYPHVSTIINICLKYLTYDPNYNYDDEDEDENAMDADGGDDDDQGSDDEYSDDDDMSWKVRRAAAKCLDAVVSTRHEMLPEFYKTVSPALISRFKEREENVKADVFHAYLSLLKQTRPVQSWLCDPDAMEQGETPLTMLQSQVPNIVKALHKQMKEKSVKTRQCCFNMLTELVNVLPGALTQHIPVLVPGIIFSLNDKSSSSNLKIDALSCLYVILCNHSPQVFHPHVQALVPPVVACVGDPFYKITSEALLVTQQLVKVIRPLDQPSSFDATPYIKDLFTCTIKRLKAADIDQEVKERAISCMGQIICNLGDNLGSDLPNTLQIFLERLKNEITRLTTVKALTLIAGSPLKIDLRPVLGEGVPILASFLRKNQRALKLGTLSALDILIKNYSDSLTAAMIDAVLDELPPLISESDMHVSQMAISFLTTLAKVYPSSLSKISGSILNELIGLVRSPLLQGGALSAMLDFFQALVVTGTNNLGYMDLLRMLTGPVYSQSTALTHKQSYYSIAKCVAALTRACPKEGPAVVGQFIQDVKNSRSTDSIRLLALLSLGEVGHHIDLSGQLELKSVILEAFSSPSEEVKSAASYALGSISVGNLPEYLPFVLQEITSQPKRQYLLLHSLKEIISSASVVGLKPYVENIWALLLKHCECAEEGTRNVVAECLGKLTLIDPETLLPRLKGYLISGSSYARSSVVTAVKFTISDHPQPIDPLLKNCIGDFLKTLEDPDLNVRRVALVTFNSAAHNKPSLIRDLLDTVLPHLYNETKVRKELIREVEMGPFKHTVDDGLDIRKAAFECMYTLLDSCLDRLDIFEFLNHVEDGLKDHYDIKMLTFLMLVRLSTLCPSAVLQRLDRLVEPLRATCTTKVKANSVKQEFEKQDELKRSAMRAVAALLTIPEAEKSPLMSEFQSQISSNPELAAIFESIQKDSSSTNLESMDTS [CAND1] | -0.92 | -0.546 | 56.9 °C | 56.2 °C | -0.0927 | 0.0808
MASGQGPGPPRQECGEPALPSASEEQVAQDTEEVFRSYVFYRHQQEQEAEGVAAPADPEMVTLPLQPSSTMGQVGRQLAIIGDDINRRYDSEFQTMLQHLQPTAENAYEYFTKIATSLFESGINWGRVVALLGFGYRLALHVYQHGLTGFLGQVTRFVVDFMLHHCIARWIAQRGGWVAALNLGNGPILNVLVVLGVVLLGQFVVRRFFKS [BAK1] | -0.0676 | -0.207 | – | 55.7 °C | -0.0672 | -0.215
MASGSVAECLQQETTCPVCLQYFAEPMMLDCGHNICCACLARCWGTAETNVSCPQCRETFPQRHMRPNRHLANVTQLVKQLRTERPSGPGGEMGVCEKHREPLKLYCEEDQMPICVVCDRSREHRGHSVLPLEEAVEGFKEQIQNQLDHLKRVKDLKKRRRAQGEQARAELLSLTQMEREKIVWEFEQLYHSLKEHEYRLLARLEELDLAIYNSINGAITQFSCNISHLSSLIAQLEEKQQQPTRELLQDIGDTLSRAERIRIPEPWITPPDLQEKIHIFAQKCLFLTESLKQFTEKMQSDMEKIQELREAQLYSVDVTLDPDTAYPSLILSDNLRQVRYSYLQQDLPDNPERFNLFPCVLGSPCFIAGRHYWEVEVGDKAKWTIGVCEDSVCRKGGVTSAPQNGFWAVSLWYGKEYWALTSPMTALPLRTPLQRVGIFLDYDAGEVSFYNVTERCHTFTFSHATFCGPVRPYFSLSYSGGKSAAPLIICPMSGIDGFSGHVGNHGHSMETSP [TRIM27] | 1.44 | 3.24 | 50.9 °C | 50.5 °C | -0.135 | -0.499
MASGVQVADEVCRIFYDMKVRKCSTPEEIKKRKKAVIFCLSADKKCIIVEEGKEILVGDVGVTITDPFKHFVGMLPEKDCRYALYDASFETKESRKEELMFFLWAPELAPLKSKMIYASSKDAIKKKFQGIKHECQANGPEDLNRACIAEKLGGSLIVAFEGCPV [DSTN] | -0.977 | -2.53 | 54.1 °C | 53.3 °C | -0.06 | 0.0748
MASKCPKCDKTVYFAEKVSSLGKDWHKFCLKCERCSKTLTPGGHAEHDGKPFCHKPCYATLFGPKGVNIGGAGSYIYEKPLAEGPQVTGPIEVPAARAEERKASGPPKGPSRASSVTTFTGEPNTCPRCSKKVYFAEKVTSLGKDWHRPCLRCERCGKTLTPGGHAEHDGQPYCHKPCYGILFGPKGVNTGAVGSYIYDRDPEGKVQP [CRIP2] | -3.58 | -3.7 | 55 °C | 53.2 °C | 0.0882 | 0.608
